{"source": "paper doi:10.1101/2025.08.30.673307", "about": "(bioRxiv, 2025)", "proteins": {"B1": {"name": "stomatin (STOM) fused at its C terminus with a Twin-Strep tag (natural protein, human, UniProt P27105 1-288, looked up)", "chain": "MAEKRHTRDSEAQRLPDSFKDSPSKGLGPCGWILVAFSFLFTVITFPISIWMCIKIIKEYERAIIFRLGRILQGGAKGPGLFFILPCTDSFIKVDMRTISFDIPPQEILTKDSVTISVDGVVYYRVQNATLAVANITNADSATRLLAQTTLRNVLGTKNLSQILSDREEIAHNMQSTLDDATDAWGIKVERVEIKDVKLPVQLQRAMAAEAEASREARAKVIAAEGEMNASRALKEASMVITESPAALQLRYLQTLTTIAAEKNSTIVFPLPIDMLQGIIGAKHSHLG"}}, "molecular_target": "the molecule itself", "assay": "cryo-EM structure", "data": [{"protein": "B1", "values": [{"measurement": "stoichiometry N", "result": 16, "unit": "subunits"}]}]}
